Results as given in a protein production outcome set (Wang et al. 2014).

Assay: label from the status in PepcDB records

| Sequence | protein production |
| --- | --- |
| MTAVSSVYAQRLLITLFLVSFGIYLFVATVTYTPFDPGWMHISSDTQNVSNASGVAGAWIADLMFGFLGWASLLIPIFLFIEAIQIWWPRSFLTRPFRYAAQFFIILATSTLLYLYWNVPADTLENASGGIIGFEVGQSLSGLLTIYGATLFLVAFWVLLITLAFGIQWNRTWATLKATPAYLQDLFYKNVSPNESDYDLTEQPKKTASTSKTTVASEQNHQDQVHDQHLEQTTRTDQKAFDTTTKNFVSDEMVEKLFADVVAKEQYAQQQVQAVNTSIEDPAFEQTIQKAHQLEKEAKRLVPTGEVWKALQTDDSTHKQEIDALLRAADDNEPSVTPMTSDELLANLKAQQAQQNHTQPNNHTAKLNWNDDQIFDELLAAMPNSKIGSDIHTPFVEHREDTTPDHTDHLIQQVEQTLQASSNTLQPKNMTNLDEAEEQSDLLTETVEENPSTHYAGQPQNRSFTSNELTAKDQEKLSKEEFIEAWQETAGKPVEDDFDFDAPLTDASGRPMSRAMQVAQKRRDLPTLPGLELLDKVDPNKKVNFTVEQLERLSELLEIKLQEFNVKAKVVEAQPGPVVTRFELDLAPGVKASKVTNISRDLARSMSMASVRVVEVIPGKPYIGIEVPNSSREMVRLIELLETASFRDPAGLLSMAMGKDISGNPVITDLGKAPHMLVAGTTGSGKSVAVNSMILSMLLKYTPDQLRLILIDPKQLELANYNDIPHLLTPVVTDMKDAVSALNWCVNEMERRYKLMSFLKIRKLADYNRKVEEAIANGEDLIDPTWKPSDSATQERAPRLQPLPSIVIVADEFADMIMQVGKKAEEMITRLAQKSRAAGIHLLLATQRPSVDVITGLIKANIPTRVALRVNSKIDSRTILDAGGAEDLLGHGDMLFLGPGKIEPERVHGAFIGDDEVNRICDAWRERGEPNYVDEILTPFDEEPTSRGFEDGGEGASDRDMLYDQCVAFVLETRKASTSSLQRKFSLGYNRAARIIDQMEENGIVSAMGANGKREILV | failed |
| MREEKIREALNAHWQASAAGDFDAEHDIYDDDAICDYPQSGERILGRMNLQALRSHHPGKPAGFEVRRIQGEGNLWITEYSISYNGRPAYTVSIMEFRNGKVVHETQYFSDPFEAPGWRSQWVQQIG | not failed |
| MKPALHAIDATLPAPPTYTPAGNECALFEHAWKRRVPLLLKGPTGCGKTRFVAHMAARLGLPLFTVSCHDDLTAADLTGRYLLKGGETVWVDGPLTRAVRQGGICYLDEVVEARKDVAVVLHPLADDRRVLPLERTGEELQAPPHFMLVVSYNPGYQSLLKALKPSTRQRFAAIEFGFLAPEQEIAVVAAESGLPSERVAPLVALAGRLRKLKGHDLEEGVSTRLLVYCASLISEGLPVRDAVLAGLIEPLTDDADVKAALIEVAGVVIGLEHHHHHH | not failed |
| MSLFGTTSGFGTSGTSMFGSATTDNHNPMKDIEVTSSPDDSIGCLSFSPPTLPGNFLIAGSWANDVRCWEVQDSGQTIPKAQQMHTGPVLDVCWSDDGSKVFTASCDKTAKMWDLSSNQAIQIAQHDAPVKTIHWIKAPNYSCVMTGSWDKTLKFWDTRSSNPMMVLQLPERCYCADVIYPMAVVATAERGLIVYQLENQPSEFRRIESPLKHQHRCVAIFKDKQNKPTGFALGSIEGRVAIHYINPPNPAKDNFTFKCHRSNGTNTSAPQDIYAVNGIAFHPVHGTLATVGSDGRFSFWDKDARTKLKTSEQLDQPISACCFNHNGNIFAYASSYDWSKGHEFYNPQKKNYIFLRNAAEELKPRNKK | failed |
| MQSRSKSDMKPIRKEILNPGNAYIELTPGTRRLTPHDIGLFQVKFHFQTRRAGDSRIIDDSRKMEKPMELVLGKKFKLEVWELIVQQMSLNEVAKFTVHKSLCAQYPFISKTLRDIGKKPEERRHCCGMTLQNEGIGYTDLDELLQNPSDLEFIIELFSIELPEQYEKERWQMSDDEKMLATSTLRERGNNFYKASRFTEAETCYREAVGIVEQLMLKEKPHDEEWQELAAIKTPLLLNYAQCRLIAGDFYAVIEHCNEVLTLDPRNVKALFRRAKAHAGAWNPAQARRDFLDALALDASLKSTVSKELKSIEDQQQARNVQDRIHMQKLF | failed |
| DETYYTVDLEQKLEEKFGLEEAIVVATHDMSEEEALNFLAKEAAYTLSKRIAKVNTLGISWGKTIRKFANEFPYIPHKDLTIIPLIGGMGSSDIDLHSNQICYDLKKKMQCHSKYLYAPALVEDTEMKADLSKNKYINEVLEEGKTVDMAIVGVSSPYNQSTMEEIGYITPEDIEELRYKDVVGDINSRFFTANGEEANTQINTHVIGLSLEELKKIPTVVALANGLQKKDALVSALNAGLIDVIVITDRMAEYILQKND | failed |
| MFIGIYNRSVIVTYMGIASAMVGMYLADKHDIRYAILCLVIAGVCDLFDGKIARMCKRTEDEKLFGIQLDSLADVICFSALPISIFYGLGLNKWYHVVIYTAFTLAAITRLGFFNIKVMDSNRDKPVDYYSGLPVTCSAMIFPLFWLLSFCLDRHIFLLIYTIIIAVVAFLFVANIKIKKPKGIAYGVFVVLAVLMSLGIIFIGV | failed |
| MTLETAFMLPVQDAQHSFRRLLKAMSEPGVIVALHQLKRGWQPLNIATTSVLLTLADNDTPVWLSTPLNNDIVNQSLRFHTNAPLVSQPEQATFAVTDEAISSEQLNALSTGTAVAPEAGATLILQVASLSGGRMLRLTGAGIAEERMIAPQLPECILHELTERPHPFPLGIDLILTCGERLLAIPRTTHVEVC | not failed |
| MKGRSGDVNINTNAISTPARVLIYSTAAVLLTIGMKAISSILMPIFFSIFSYLIFAPLVRWLMRKRVPGKISVVLVILVFIFVFVGTTLLFANSLLQLSGRIPNYENQLTSILNSISIYLPEAGVSVESVLRDIAAFAFNVSGDIISGALNAGSTIALIVITTTFLLLDSAGAPVKMQKEGENQPVHISQYTELSRTVINYMLLRTETNLLGGIGTAILLLAGGIDFAVLWGLLFFLFGYIPYLGFYLAAIPPMLLGLFEYGLIGAVGVLVGITIINALVENVIFPSLAGKGLKLSPTLVFLSLFYWSFVLGAAGALIAVPLTIVVKIILESSEETRMIAKLMESSGTRDLDEKSTEENISE | failed |
| LPKLREDFKMQNKSVFILGASGETGKVLLKEILGQNLFSKVTLIGRRKLTFEEEAYKNVNQEVVDFEKLDVYASAFQGHDVGFCCLGTTRSKAGAEGFVRVDRDYVLKSAELAKAGGCKHFNLLSSRGADKSSSFLYLQVKGEVEAKVEELKFDRLSVFRPGVLLCDRQESRPGEWLARKFFGSLPDSWASGYAVPVVTVVRAMLNNLVSPSSGQMELLENKAILHLGKDRDVPKL | not failed |
| MLDPFSEKAKELLKEFGSMNEFLQAIPSLVDIEEVMNRLKFAKESEISEDILNIEDIRDLASFYAQIGALAYSPYGLELELVKKANLRIYTERIRRRRKIRSDEIGIEVKIAVEFPENDIKTLEKVYGGLPEYIVSLREFLDLVPDEKLSSYYVYDGNVYLRKDDLLKVWSKAFERNVEKAVNIIYEIRDELPEFYRRLAGEIRSFAEKEFSDKFREVQAGELKHHLFPPCVKNALRGVPQGMRNYAITVLLTSFLSYARICPNPPRRNVKIRDCIKDMRVITEEILPIIIEAGNRCSPPLFEDQPNEIKNIWYHLGFGYTANPTLEDSGNSTWYFPPNCDKIKANAPQLCTPDKHCRYIRNPLTYYLRRLYLEEKRRAKHADEGSDKGGKERILQLEHHHHHH | failed |
| MSFVTTQPEALAAAAANLQGIGTTMNAQNAAAAAPTTGVVPAAADEVSALTAAQFAAHAQMYQTVSAQAAAIHEMFVNTLVASSGSYAATEAANAAAAG | failed |
| MEITKRIEELREEMVESLKKFISINSVNPAFGGPGEKEKADWLEGLLRDFGFEVDRCDVRDDRGIWRSNIVAKIPGKNREKTLWIVTHIDTVPPGDLSLWETDPFVPVVKDGKVYGRGAEDNGGSMIASIYAGKALIDLGITPEYNFGLALVADEEAGSEYGIQYLIEKGLFSPEDMFLVPDAGNEKGDFIEIAEKSILWFKVMVNGKQGHASRPQTTENALRKGAHLITEIDEALHRKYSDRDELFDEPLSTFEPTRAEKTVDNVNTVPGRFVFYFDCRVLPRYNLDEVLSIVKSILDGRGAELEVVVKQPAPEPTPPDSELVVKLSNVLRSLRGLEAKVGGIGGGTCAAFFRKKGWPAVVWSTIDETAHQPNEYRRISHMVEDAKVFALLGTER | not failed |
| MRADTRDFRALFLGDAPLLDTRAPVEFAKGAFPGAVNLPLMSDAERHKVGLCYKQQGQDAAIALGHRLVSGAVKAERVAAWAAFAQAHPEGYLYCFRGGLRSQISQAWLREEAGIAYPRVIGGYKAMRGFLLETIEQAIAEC | failed |
